According to US5981483A, “Compositions comprising modulators of cytokines of the TGF-β superfamily” (Mount Sinai Hospital Corporation, priority 1997, dated 1999):
Where a SMILES comes first, the peptide text is derived from it. Bridges are numbered along the chain shown (N, C = ends). The star is where a group is joined. Cam = NC(=O)C*

How the values were obtained:
[1] = test system: rat bone marrow stromal cells; assay: Dexamethasone-treated rat bone marrow stromal cell cultures (proliferation, mineralization, TGF-β levels); type: cell-based; conditions: dexamethasone 10^-8 M, FIG. 17
Protocol: The methods used in the studies described in this example and illustrated in FIGS. 16 and 17 are as follows. Femoral bones were removed under aseptic conditions from adult male Wistar rats (120 g), cleaned of adherent soft tissues, and washed extensively in antibiotics. The distal ends were removed and the marrow contents were flushed out with 10 ml of culture medium. The cells were dispersed by repeated passage through a 20 gauge needle and incubated in alpha-MEM supplemented with 15% fetal bovine serum, ascorbic acid (50 μg/ml), antibiotics (penicillin G 100 μg/ml, gentamicin 50 μg/ml, fungizone 0.3 μg/ml) and 10 mM β-glycerophosphate. […] Following 6 days of culture at 37° C. in a humidified atmosphere containing 5% CO2 in air, the cells were re-plated at a density of 1×10^2 cell/mm^2 in 96 multi-well plates (Falcon 3047), and grown for another 12-14 days. At the end of culture, the cells were fixed and stained for calcium with alizarin red-s for quantification of bone nodule area (reported as mineralized area (mm^2)/well). To assess mineralized tissue formation in the cultures morphometric measurements were carried out with the aid of a Bioquant IV system (Bioquant, Nashville, Tenn., U.S.A.) using a Leitz Orthoplan microscope. TGF-β in culture supernatants taken 4 days prior to scoring mineralization were measured with and without heat activation (80° C. for 10 min) using the Mink cells as the indicator cell line as described in FIG. 12.

TGF-β1 binding to TβRII = target: T1, TGF-β1 binding to TβRII (Homo sapiens, UniProt P01137); assay: Competition of TGF-β1 binding to immobilized TβRII (Quantikine ELISA); conditions: 40 pM TGF-β1; fetuin 40 μM, TRH1 peptide from TβRII 20 μM; FIG. 14
T1 construct: The mature processed cytokines produced from the members of the gene family show almost 100% amino acid identity between species; purchased R&D Systems
T1 sequence (P01137 279-390 limits assumed): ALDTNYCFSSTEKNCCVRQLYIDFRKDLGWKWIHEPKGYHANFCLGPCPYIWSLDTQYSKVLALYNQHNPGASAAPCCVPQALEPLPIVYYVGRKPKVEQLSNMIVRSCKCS
Protocol: Inhibition of TGF-β1 binding to TβRII was carried out using the Quantikine ELISA kit (R&D Systems). In particular, 96 well plates were pre-coated with the extracellular domain of TβRII. […] This was followed by a 5 minute incubation with the TβRII coated ELISA wells with shaking, washing as recommended, and a 1 hr incubation with the polyclonal anti-TGF-β1 antibody. Plates were developed as per the instructions, and determinations were made in triplicate.

TGF-β1 [2] = target: T2, TGF-β1 (Homo sapiens, UniProt P01137); assay: BIAcore surface plasmon resonance, binding to immobilized TGF-β1; conditions: for kass: ligand TGF-β1
T2 construct: The mature processed cytokines produced from the members of the gene family show almost 100% amino acid identity between species; purchased Collaborative Research (Bedford, Mass.)
T2 sequence (P01137 279-390 limits assumed): as above
Protocol: (§1) In this system, a purified protein serving as the ligand is covalently coupled to a carboxymethylated dextran surface, and binding molecules (i.e. the analyte) are passed in a fluid phase across the surface. Binding of the analyte to ligand causes a change in reflected light which is directly proportional to mass bound, and is measured in arbitrary response units (R.U.). Analyte-ligand binding is observed as both increasing response with time during the injection of analyte, and the difference in the position of the baseline before and after injection.
(§2) Schuster, R. V. Swanson, L. A. Alex, R. B. Bourret, M. I. Simon, Nature 365, 343 (1993). 1000 R.U. equals approximately 1 ng/mm^2. The running buffer was 20 mM Hepes (pH 7.2), 150 mM NaCl and the flow rate for all sensorgrams was 3 μl/min.
(§3) Regeneration of the surface to remove bound analyte was done by injection of 10 μl of 20 mM NaOH. To cyclize TRH1 peptides, the material was reduced with 5 mM DTT then brought to a final concentration of 60 μM in 25 mM ammonium acetate (pH 8.5). After stirring in the dark for 30 min at 20° C. with 30 mM potassium ferricyanide, the peptide was mixed with AG3-X4A resin (BioRad), filtered, lyophilization and desalted on a 50×2.5 cm column of Biogel P2 (Pharmacia) developed in water, and further purified by reverse phase HPLC.
(§4) Injection volumes were 36 μl for FIG. 2, 4 and 5 and 45 μl for FIG. 3. […] Protein concentrations in each experiment were (FIGS. 2 and 3), 2, 5, 10, 20, 30, 40 μM; (FIG. 4), 0.21, 0.31, 0.41, 0.62, 0.82, 1.24 μM; (FIG. 5), 0.22, 0.29, 0.44, 0.59, 0.88 μM. R.U. for the immobilized cytokine in each experiment was 2850 R.U. for FIGS. 2 and 3; 7450 R.U. for FIG. 4, and 5300 R.U., for FIG. 5 respectively.
(§5) Data was analyzed using the BIA-evaluation software (Pharmacia Biosensor). The association rate constant, kass, was calculated by first plotting the change in response with time versus response (i.e. dR/dT vs R). When the slope of the line from this graph is plotted versus analyte concentration (i.e d(dR/dT)/dR vs C), kass is obtained from the slope of the line. The dissociation rate constant, kdiss, is obtained during the decrease in response with time after analyte injection is discontinued. Specifically, kdiss was obtained from the slope of the line in a plot of ln(Rt1 /Rtn) vs time. The affinity constants were calculated from KD =kdiss /kass. Variance for kass is standard error of the linear regression plot, and for kdiss values are the mean ± range of 3 or more independent injections.

BMP-2 = target: T3, BMP-2 (Homo sapiens, UniProt P12643); assay: BIAcore surface plasmon resonance, binding to immobilized BMP-2; conditions: for kass: ligand BMP-2
T3 construct: Genetics Institute, Cambridge, Mass; (gift)
T3 sequence (P12643 283-396): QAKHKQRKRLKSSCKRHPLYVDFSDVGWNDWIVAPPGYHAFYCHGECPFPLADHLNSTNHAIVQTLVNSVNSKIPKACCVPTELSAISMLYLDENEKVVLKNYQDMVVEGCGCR
Protocol: as §1, §2, §3, §4, §5

TGF-β2 = target: T4, TGF-β2 (Homo sapiens, UniProt P61812); assay: BIAcore surface plasmon resonance, binding to immobilized TGF-β2; conditions: Table 1; ligand TGF-β2
T4 construct: The mature processed cytokines produced from the members of the gene family show almost 100% amino acid identity between species
T4 sequence (P61812 303-414 limits assumed): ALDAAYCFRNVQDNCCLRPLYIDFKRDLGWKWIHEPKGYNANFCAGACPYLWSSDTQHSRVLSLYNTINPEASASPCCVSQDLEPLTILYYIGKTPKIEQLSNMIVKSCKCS
Protocol: as §1, §2, §3
as §5, with “Variance for kass is standard error of the linear regression plot, and for kdiss values are the mean ± range of 3 or more independent injections.” left out

BMP-4 = target: T5, BMP-4 (Homo sapiens, UniProt P12644); assay: BIAcore surface plasmon resonance, binding to immobilized BMP-4; conditions: Table 1; ligand BMP-4
T5 sequence (P12644 293-408): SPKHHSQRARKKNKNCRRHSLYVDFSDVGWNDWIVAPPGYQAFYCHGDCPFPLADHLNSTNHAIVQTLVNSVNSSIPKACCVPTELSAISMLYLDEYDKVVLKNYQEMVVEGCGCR
Protocol: as §1, §2
Regeneration of the surface to remove bound analyte was done by injection of 10 μl of 20 mM NaOH. To cyclize TRH1 peptides, the material was reduced with 5 mM DTT then brought to a final concentration of 60 μM in 25 mM ammonium acetate (pH 8.5). […]
Data was analyzed using the BIA-evaluation software (Pharmacia Biosensor). The association rate constant, kass, was calculated by first plotting the change in response with time versus response (i.e. dR/dT vs R). […] The affinity constants were calculated from KD =kdiss /kass. […]

TGF-β1 [3] = target: T2, TGF-β1; assay: 3H-Thymidine incorporation in Mv1Lu cells: neutralization of the antiproliferative activity of TGF-β1; type: cell-based
Protocol: Mv1Lu cells were seeded at 20,000 cells/well in a 96 well plate containing 0.2% FCS in α-MEM and incubated with the indicated concentrations of proteins for 18 hr. The cells were then pulsed with 8 μCi/ml methyl-^3 H-thymidine (NEN, Boston, Mass.) for 6 hr. Cells were trypsinized, harvested onto filtermats and counted in a β-Counter. Percent neutralization is defined as incorporation in the presence of 12 pM TGF-β1 alone set at 0%, and incorporation without additions as 100%. The difference in ^3 H-thymidine incorporation between 0% and 100% was 7.5 fold. Each point in FIG. 1 and FIG. 12 represents the mean of duplicate determinations, and the results are representative of three experiments. […] Before use, bovine thyroglobulin was spun twice in a centricon (M.W. cutoff of 10,000 Da) micro-concentrator (Amicon, Beverly, Mass.) to remove any excess Iodine and T3/T4 thyroid hormones.

[4] = Table 2 (calculations repeated)

Molecule: C[C@@H]1C[C@H]2[C@@H]3CCC4=CC(=O)C=C[C@]4(C)[C@@]3(F)[C@@H](O)C[C@]2(C)[C@@]1(O)C(=O)CO [Dexamethasone, dexamethasone, reference compound]
- increase of the fraction of active TGF-β in the cultures [1]: 3 fold

Molecule: CC[C@H](C)[C@@H]1NC(=O)[C@H](CC(N)=O)NC(=O)[C@H](CCC(=O)O)NC(=O)[C@H](CC(=O)O)NC(=O)[C@H](CC(N)=O)NC(=O)[C@H](CCCCN)NC(=O)[C@H](CCCNC(=N)N)NC(=O)[C@H](Cc2c[nH]c3ccccc23)NC(=O)[C@H](C(C)C)NC(=O)[C@H](C)NC(=O)[C@H](C(C)C)NC(=O)[C@@H](N)CSSC[C@@H](C(=O)O)NC(=O)[C@H](C(C)C)NC(=O)[C@H]([C@@H](C)O)NC(=O)[C@H](CCC(=O)O)NC(=O)[C@H](CC(C)C)NC(=O)[C@H]([C@@H](C)O)NC1=O [TRH1b (TβRII)]
- inhibition of TGF-β1 binding to immobilized recombinant TβRII (TGF-β1 binding to TβRII): competitive inhibitors
- kass (TGF-β1 [2]; Table 1): 3700 ± 2900 M⁻¹ s⁻¹
- kass (TGF-β1 [2]; [4]): 2200 ± 1300 M⁻¹ s⁻¹

Molecule: CC[C@H](C)[C@H](NC(=O)[C@H](CC(=O)O)NC(=O)[C@@H](N)CSCC(N)=O)C(=O)N[C@@H](Cc1c[nH]cn1)C(=O)N[C@H](C(=O)N[C@@H](CC(C)C)C(=O)N[C@@H](CCCCN)C(=O)N[C@@H](CCC(N)=O)C(=O)N[C@@H](CC(=O)O)C(=O)NCC(=O)N[C@@H](CCC(N)=O)C(=O)N[C@@H](Cc1ccccc1)C(=O)N[C@@H](CO)C(=O)N[C@H](C(=O)N[C@@H](CC(C)C)C(=O)N[C@@H](Cc1ccccc1)C(=O)N[C@H](C(=O)N[C@@H](CCCCN)C(=O)N[C@@H](CSCC(N)=O)C(=O)O)[C@@H](C)O)C(C)C)C(C)C [TRH1b (fetuin) (reduced & alkylated)] (H-C(Cam)DIHVLKQDGQFSVLFTKC(Cam)-OH; N-terminus and C-terminus assumed)
- binding to immobilized BMP-2 (in words) (BMP-2): no significant binding

Molecule: CC[C@H](C)[C@@H]1NC(=O)[C@H](CC(=O)O)NC(=O)[C@@H](N)CSSC[C@@H](C(=O)O)NC(=O)[C@H](CCCCN)NC(=O)[C@H]([C@@H](C)O)NC(=O)[C@H](Cc2ccccc2)NC(=O)[C@H](CC(C)C)NC(=O)[C@H](C(C)C)NC(=O)[C@H](CO)NC(=O)[C@H](Cc2ccccc2)NC(=O)[C@H](CCC(N)=O)NC(=O)CNC(=O)[C@H](CC(=O)O)NC(=O)[C@H](CCC(N)=O)NC(=O)[C@H](CCCCN)NC(=O)[C@H](CC(C)C)NC(=O)[C@H](C(C)C)NC(=O)[C@H](Cc2c[nH]cn2)NC1=O [TRH1b (fetuin)] (H-CDIHVLKQDGQFSVLFTKC-OH; disulfide 1-19; N-terminus and C-terminus assumed)
- kass (BMP-2; [4]): 1300 ± 500 M⁻¹ s⁻¹
- Competition of fetuin-BMP-2 binding (BMP-2; co-injected with fetuin, data not shown, listed as fetuin TRH1b peptide): competed for fetuin-BMP-2 binding in a dose dependent manner

Molecule: Thyroglobulin: Bovine thyroglobulin (Sigma), contains the TRH1 domain
- kass (TGF-β2): 1300 ± 600 M⁻¹ s⁻¹
- kass (BMP-4): 54000 ± 7000 M⁻¹ s⁻¹
- Maximal effect, percent neutralization (TGF-β1 [3]; 12 pM TGF-β1, FIG. 1): approximately 150%
- IC50 for inhibition of TGF-β1 activity, fold lower than for fetuin (TGF-β1 [3]; FIG. 1): 20 fold
- kass (BMP-2; Table 1): 32000 ± 2000 M⁻¹ s⁻¹

Molecule: human transferrin: non-binding control protein [reference compound]
- binding to immobilized TGF-β1 (in words) (TGF-β1 [2]): non-binding

Molecule: reduced and alkylated fetuin: fetuin, reduced and alkylated
- binding to immobilized TGF-β1 (in words) (TGF-β1 [2]): diminished binding
- binding to immobilized BMP-2 (in words) (BMP-2): diminished binding
